Test results published in PMC7835349 (Communications Biology, 2021).

How the values were obtained:
[1] = Plasma pharmacokinetics after IV bolus in C.B-17 SCID mouse; type: in vivo; conditions: mouse, at 10 mg/kg or equivalent
Procedure: Pharmacokinetic studies were carried out in the female C.B-17 SCID mouse. Either freshly prepared solutions of AZD4320 in 30% hydroxypropyl-β-cyclodextrin or drug-dendrimer conjugates in phosphate buffered saline were injected as a bolus into the tail vein at dosing volume of 5 ml/kg. Blood samples were collected at different time points post dose and analysed as below.
Blood samples were collected from the jugular vein by venepuncture into K2EDTA (as anticoagulant) tubes. Immediately following collection into the K2EDTA tube the samples were mixed gently and kept on crushed ice until centrifugation. Within 30 mins of blood collection, each sample was centrifuged (1500 g for 10 min at 4 °C) to generate plasma which was kept on wet ice at all times in polypropylene tubes. Duplicate 50 μL aliquots were transferred immediately after centrifugation into uniquely labelled polypropylene tubes (‘released’ AZD4320) containing equivalent amount (50 μL) of 0.2 M citric acid solution, inverted 10 times and then stored in a freezer set to maintain a temperature of −80 °C, until analysis.
The concentrations of ‘total’ AZD4320 were determined in plasma by overnight incubation with hydrazine followed by protein precipitation with acetonitrile and subsequent liquid/liquid extraction. Liquid chromatography with mass spectrometric detection (LC-MS/MS, details in Supplementary Table 5) was used to quantitate both ‘released’ and ‘total’ AZD4320.
Sample analyses were performed in batches containing study samples, calibration standards at 10 concentration levels, QC samples at three concentration levels in duplicate and blank samples. The analytical run acceptance criteria for calibration standards and QC samples was that at least 75% of back-calculated concentrations for calibration standards and at least 2/3 of the QC samples (at least 50% at each concentration level) should be within ±20% (±25% at LLOQ) from nominal value.

telemetered dogs = test: Conscious dog telemetry (QRS amplitude and other cardiovascular parameters, tolerability)
[2] = dog, AZD0466 10 mg/kg (3 mg/kg AZD4320 equivalent), 1 h infusion
[3] = dog, AZD0466 30 mg/kg (9 mg/kg AZD4320 equivalent), 1 h infusion
[4] = dog, AZD0466 60 mg/kg (18 mg/kg AZD4320 equivalent), 1 h infusion

With AZD4320-MIDA-PEG2100 [AZD0466] the “Total Concentration in Plasma as AZD4320, Mean (Fig S9)” value (shortened to “Total Concentration in Plasma”) ([1]; 1 hr) was 117.3 µg/mL, the “Total Concentration in Plasma” value ([1]; 3 hr) was 49.1 µg/mL and the “Total Concentration in Plasma” value ([1]; 9 hr) was 36.3 µg/mL. For the same substance, the “Total Concentration in Plasma” value ([1]; 20 hr) was 8.0 µg/mL, the “other cardiovascular effects” value (telemetered dogs; conscious telemetered dogs, 1-hour infusion) was “A small increase in diastolic BP, a transient and delayed-onset small increase in heart rate, a decrease in dP/dt+ (an index of cardiac contractility) and a decrease in PR interval” and the “effect on QRS amplitude” value (telemetered dogs; conscious telemetered dogs, 1-hour infusion, 30 and 60 mg/kg) was “dose-dependent decrease in QRS amplitude that returned to baseline”. For the same substance, the “NOEL (no observed effect level), cardiovascular system” value (telemetered dogs; dog) was 10 mg/kg, the “improvement in cardiovascular tolerability based on dose vs AZD4320” value (telemetered dogs; dog) was 18 fold and the “effect on QRS amplitude” value (telemetered dogs; dog, 10 mg/kg AZD0466 (equivalent to 3 mg/kg AZD4320)) was “no effect on QRS amplitude”. The “Effects” value (telemetered dogs; [2]) was “No effect level”, the “Tolerated?” value (telemetered dogs; [2]) was “Yes” and the “Tolerated?” value (telemetered dogs; [3]) was “Yes”. For the same substance, the “↓QRS amplitude (% decrease)” value (telemetered dogs; [3]) was 30%, the “Effects other than QRS amplitude” value (telemetered dogs; [4]) was “↑DBP, ↑HR, ↓dP/dt+, ↓PR interval, ↓LVEDP” and the “Tolerated?” value (telemetered dogs; [4]) was “Yes”. The “↓QRS amplitude (% decrease)” value (telemetered dogs; [4]) was 33%.
